Substrate: Nc1ccn([C@H]2C[C@H](O)[C@@H](CO)O2)c(=O)n1
Assay: UV kinetic assay of hCDA-catalysed 2'-deoxycytidine deamination
Assay type: biochemical, human
Conditions: other: pH 7.4, fitted in the experiment with inhibitor β-anomer of Vb, 25.0 °C
Method: We monitored the hCDA-catalysed deamination of dC at 286 nm and analysed the kinetic profiles at various inhibitor concentrations using a global regression analysis of the kinetic data using Lambert’s W function. This method provides better estimates for the Michaelis–Menten constant (KM) and maximum velocity (Vmax) than nonlinear regression analysis of the initial rate (V0). […] Then, KM for the substrate and Ki for each inhibitor were calculated, assuming competitive nature of the inhibitors (Table 1).
We assumed that protonation of Va might result in some inhibition of hCDA. […] This means that the pH value of the assay should be close to pH 1.5 to see any meaningful effect of partially protonated compound Va, but hCDA would be denatured at this pH value. By lowering the pH value to 6.0, dZ (IIc) started to lose potency against hCDA (Table 1), which might be a result of protonation of the pyrimidine ring in dZ (IIc). […]
Figure S10. hCDA (27nM) catalysed deamination of 2'-deoxycitidine (⁓1.5 mM) in the absence (plus) and presence of 5 µM 2'-deoxyzebularine (IIc, asterisk) monitored by measuring absorbance at 286 nm over time in 100 mM NaCl, 1 mM TCEP, 50 mM phosphate buffer at 25 °C, at pH 7.4. […]
where mm(t) calculates the current substrate concentration with respect to the time, t. […] A summary of the measured inhibition […]
Uncertainty of Ki was calculated using error-propagation method. […]

B1: human cytidine deaminase (hCDA) (Homo sapiens) (protein)
chain: MAQKRPACTLKPECVQQLLVCSQEAKKSAYCPYSHFPVGAALLTQEGRIFKGCNIENACYPLGICAERTAIQKAVSEGYKDFRAIAIASDMQDDFISPCGACRQVMREFGTNWPVYMTKPDGTYIVMTVQELLPSSFGPEDLQKTQ
notes: purchased Sigma-Aldrich SRP6372; host or cells: E. coli
  Km: 240 ± 150 µM

Source: article PMC11106675, “Synthesis of 1,4-azaphosphinine nucleosides and evaluation as inhibitors of human cytidine deaminase and APOBEC3A” (Beilstein Journal of Organic Chemistry, 2024)
